B1: mCOX-2 (mouse COX-2) (Mus musculus; L489M) (protein)
chain: ANPCCSNPCQNRGECMSTGFDQYKCDCTRTGFYGENCTTPEFLTRIKLLLKPTPNTVHYILTHFKGVWNIVNNIPFLRSLIMKYVLTSRSYLIDSPPTYNVHYGYKSWEAFSNLSYYTRALPPVADDCPTPMGVKGNKELPDSKEVLEKVLLRREFIPDPQGSNMMFAFFAQHFTHQFFKTDHKRGPGFTRGLGHGVDLNHIYGETLDRQHKLRLFKDGKLKYQVIGGEVYPPTVKDTQVEMIYPPHIPENLQFAVGQEVFGLVPGLMMYATIWLREHNRVCDILKQEHPEWGDEQLFQTSRLILIGETIKIVIEDYVQHLSGYHFKLKFDPELLFNQQFQYQNRIASEFNTLYHWHPLLPDTFNIEDQEYSFKQFLYNNSILLEHGLTQFVESFTRQIAGRVAGGRNVPIAVQAVAKASIDQSREMKYQSLNEYRKRFSLKPYTSFEELTGEKEMAAELKALYSDIDVMEMYPALLVEKPRPDAIFGETMVELGAPFSLKGLMGNPICSPQYWKPSTFGGEVGFKIINTASIQSLICNNVKGCPFTSFNVQDPQPTKTATINASASHSRLDDINPTVLIKRRSTEL
B2: mCOX-2 (mouse COX-2) (Mus musculus) (protein)
chain: ANPCCSNPCQNRGECMSTGFDQYKCDCTRTGFYGENCTTPEFLTRIKLLLKPTPNTVHYILTHFKGVWNIVNNIPFLRSLIMKYVLTSRSYLIDSPPTYNVHYGYKSWEAFSNLSYYTRALPPVADDCPTPMGVKGNKELPDSKEVLEKVLLRREFIPDPQGSNMMFAFFAQHFTHQFFKTDHKRGPGFTRGLGHGVDLNHIYGETLDRQHKLRLFKDGKLKYQVIGGEVYPPTVKDTQVEMIYPPHIPENLQFAVGQEVFGLVPGLMMYATIWLREHNRVCDILKQEHPEWGDEQLFQTSRLILIGETIKIVIEDYVQHLSGYHFKLKFDPELLFNQQFQYQNRIASEFNTLYHWHPLLPDTFNIEDQEYSFKQFLYNNSILLEHGLTQFVESFTRQIAGRVAGGRNVPIAVQAVAKASIDQSREMKYQSLNEYRKRFSLKPYTSFEELTGEKEMAAELKALYSDIDVMELYPALLVEKPRPDAIFGETMVELGAPFSLKGLMGNPICSPQYWKPSTFGGEVGFKIINTASIQSLICNNVKGCPFTSFNVQDPQPTKTATINASASHSRLDDINPTVLIKRRSTEL

Substrate: CCCCC/C=C\C/C=C\C/C=C\C/C=C\CCCC(=O)O
Test: mass spectrometric product formation assay
Format: biochemical, Mus musculus
Conditions: 50 nM enzyme

Protein | Km [µM] | kcat [s^–1]
B1 | 1.4 ± 0.3 | 3.3 ± 0.1
B2 | 2.3 ± 0.3 | 3.1 ± 0.1

From publication PMC4721528
